Targets include Elastase; MMP9 (human, UniProt P14780 107-707, limits assumed); MMP8 (human, UniProt P22894 101-467, limits assumed); MMP3 (human, UniProt P08254 100-477, limits assumed); MMP13 (human, UniProt P45452 104-471, limits assumed).
Holding throughout (experiment): cell-based or functional assay
For another experiment, the target named is T1, MMP2 (human, UniProt P08253 110-660, limits assumed).
T1 sequence (looked up): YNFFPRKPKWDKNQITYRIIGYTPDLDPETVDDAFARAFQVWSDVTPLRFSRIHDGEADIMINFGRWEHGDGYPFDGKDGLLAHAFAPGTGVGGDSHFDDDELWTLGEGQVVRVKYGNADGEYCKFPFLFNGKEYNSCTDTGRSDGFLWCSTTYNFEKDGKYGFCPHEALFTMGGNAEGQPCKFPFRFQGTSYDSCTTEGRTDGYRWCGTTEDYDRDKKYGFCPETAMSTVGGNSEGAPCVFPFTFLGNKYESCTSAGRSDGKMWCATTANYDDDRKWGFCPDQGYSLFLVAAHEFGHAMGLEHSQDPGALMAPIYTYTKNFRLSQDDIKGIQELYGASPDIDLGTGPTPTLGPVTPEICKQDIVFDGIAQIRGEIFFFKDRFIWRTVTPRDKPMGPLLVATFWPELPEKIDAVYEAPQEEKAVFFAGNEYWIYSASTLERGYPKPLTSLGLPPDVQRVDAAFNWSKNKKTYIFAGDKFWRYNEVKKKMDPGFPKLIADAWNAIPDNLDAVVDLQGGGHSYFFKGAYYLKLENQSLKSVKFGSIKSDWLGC

The target in another experiment is T2, MMP1 (human, UniProt P03956 100-469, limits assumed).
T2 sequence (looked up): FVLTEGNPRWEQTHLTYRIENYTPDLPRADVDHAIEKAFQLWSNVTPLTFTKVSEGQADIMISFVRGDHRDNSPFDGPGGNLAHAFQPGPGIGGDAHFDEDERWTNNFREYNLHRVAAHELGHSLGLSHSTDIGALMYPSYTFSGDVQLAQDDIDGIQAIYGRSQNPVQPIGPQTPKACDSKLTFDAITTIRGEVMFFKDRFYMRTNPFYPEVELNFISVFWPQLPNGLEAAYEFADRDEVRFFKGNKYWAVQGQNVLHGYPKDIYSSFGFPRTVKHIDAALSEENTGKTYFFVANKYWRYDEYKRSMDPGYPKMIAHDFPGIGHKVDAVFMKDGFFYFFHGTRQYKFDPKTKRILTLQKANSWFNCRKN

The next experiment concerns the target T3, Cathepsin G (UniProt P08311 21-244).
T3 sequence (looked up): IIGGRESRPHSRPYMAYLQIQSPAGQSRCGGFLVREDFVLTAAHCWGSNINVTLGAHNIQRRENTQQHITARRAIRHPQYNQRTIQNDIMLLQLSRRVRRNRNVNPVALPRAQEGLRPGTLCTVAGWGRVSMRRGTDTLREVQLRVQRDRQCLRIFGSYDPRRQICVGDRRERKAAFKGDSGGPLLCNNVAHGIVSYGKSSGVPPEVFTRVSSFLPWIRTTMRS

The next experiment deals with T4, MMP7 (UniProt P09237 95-267, limits assumed).
T4 sequence (looked up): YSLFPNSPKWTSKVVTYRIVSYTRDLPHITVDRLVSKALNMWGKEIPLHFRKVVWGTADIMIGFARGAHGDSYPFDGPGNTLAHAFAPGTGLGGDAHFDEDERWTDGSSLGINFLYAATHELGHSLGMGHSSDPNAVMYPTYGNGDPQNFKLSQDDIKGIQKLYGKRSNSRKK

The next experiment concerns the target T5, ADAMTS5 (human, UniProt Q9UNA0 262-622, limits assumed).
T5 sequence (looked up): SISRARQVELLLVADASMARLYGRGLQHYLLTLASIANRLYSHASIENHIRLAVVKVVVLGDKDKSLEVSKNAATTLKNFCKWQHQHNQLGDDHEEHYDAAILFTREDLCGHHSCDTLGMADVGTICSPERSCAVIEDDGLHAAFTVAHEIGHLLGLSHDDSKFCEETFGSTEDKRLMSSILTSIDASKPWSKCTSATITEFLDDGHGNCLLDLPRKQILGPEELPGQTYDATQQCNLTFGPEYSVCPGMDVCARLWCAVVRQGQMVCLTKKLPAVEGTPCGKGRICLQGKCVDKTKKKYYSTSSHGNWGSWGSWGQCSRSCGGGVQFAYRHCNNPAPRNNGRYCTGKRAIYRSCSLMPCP

Chain of MMP9 (P14780 107-707 limits assumed): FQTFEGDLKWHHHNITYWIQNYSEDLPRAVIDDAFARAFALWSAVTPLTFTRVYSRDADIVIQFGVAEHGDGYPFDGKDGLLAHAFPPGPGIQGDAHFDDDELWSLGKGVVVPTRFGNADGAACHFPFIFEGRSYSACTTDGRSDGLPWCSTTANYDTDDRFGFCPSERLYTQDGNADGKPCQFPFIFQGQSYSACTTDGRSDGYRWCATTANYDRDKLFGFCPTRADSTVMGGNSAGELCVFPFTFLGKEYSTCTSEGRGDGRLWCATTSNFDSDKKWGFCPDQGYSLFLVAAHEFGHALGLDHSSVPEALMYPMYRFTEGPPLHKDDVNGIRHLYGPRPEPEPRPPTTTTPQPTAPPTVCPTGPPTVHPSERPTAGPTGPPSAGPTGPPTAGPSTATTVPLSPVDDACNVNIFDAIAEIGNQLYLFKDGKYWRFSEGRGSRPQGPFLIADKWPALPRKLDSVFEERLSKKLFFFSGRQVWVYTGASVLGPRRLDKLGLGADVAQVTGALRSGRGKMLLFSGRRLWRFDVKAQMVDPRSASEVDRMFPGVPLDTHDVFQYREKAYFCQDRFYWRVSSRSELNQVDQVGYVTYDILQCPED
Chain of MMP3 (P08254 100-477 limits assumed): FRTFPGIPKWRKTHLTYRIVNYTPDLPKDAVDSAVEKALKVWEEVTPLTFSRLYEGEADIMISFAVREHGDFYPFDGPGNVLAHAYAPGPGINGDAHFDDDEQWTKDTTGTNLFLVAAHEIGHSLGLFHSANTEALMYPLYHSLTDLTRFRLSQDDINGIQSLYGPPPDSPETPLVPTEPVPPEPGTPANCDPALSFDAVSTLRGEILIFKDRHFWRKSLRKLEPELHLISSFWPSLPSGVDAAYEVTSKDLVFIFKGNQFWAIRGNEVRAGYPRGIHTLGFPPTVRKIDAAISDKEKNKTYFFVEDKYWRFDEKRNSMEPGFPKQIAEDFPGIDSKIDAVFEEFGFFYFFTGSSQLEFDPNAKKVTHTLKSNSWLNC
Chain of MMP8 (P22894 101-467 limits assumed): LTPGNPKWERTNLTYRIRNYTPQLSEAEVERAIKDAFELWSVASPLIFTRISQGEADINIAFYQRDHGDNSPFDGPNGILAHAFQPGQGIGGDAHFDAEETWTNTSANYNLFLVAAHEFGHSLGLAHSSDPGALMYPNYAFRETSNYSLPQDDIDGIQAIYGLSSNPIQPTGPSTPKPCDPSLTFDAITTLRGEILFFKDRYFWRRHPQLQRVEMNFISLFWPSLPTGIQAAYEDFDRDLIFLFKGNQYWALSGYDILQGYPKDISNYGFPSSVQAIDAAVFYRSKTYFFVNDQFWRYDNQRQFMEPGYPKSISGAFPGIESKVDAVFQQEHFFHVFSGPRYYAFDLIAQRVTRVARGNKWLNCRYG

B1: Variant A2M, bait region SEQ ID NO 19 (other)
chain: SVSGKPQYMVLVPSLLHTETTEKGCVLLSYLNETVTVSASLESVRGNRSLFTDLEAENDVLHCVAFAVPKSSSNEEVMFLTVQVKGPTQEFKKRTTVMVKNEDSLVFVQTDKSIYKPGQTVKFRVVSMDENFHPLNELIPLVYIQDPKGNRIAQWQSFQLEGGLKQFSFPLSSEPFQGSYKVVVQKKSGGRTEHPFTVEEFVLPKFEVQVTVPKIITILEEEMNVSVCGLYTYGKPVPGHVTVSICRKYSDASDCHGEDSQAFCEKFSGQLNSHGCFYQQVKTKVFQLKRKEYEMKLHTEAQIQEEGTVVELTGRQSSEITRTITKLSFVKVDSHFRQGIPFFGQVRLVDGKGVPIPNKVIFIRGNEANYYSNATTDEHGLVQFSINTTNVMGTSLTVRVNYKDRSPCYGYQWVSEEHEEAHHTAYLVFSPSKSFVHLEPMSHELPCGHTQTVQAHYILNGGTLLGLKKLSFYYLIMAKGGIVRTGTHGLLVKQEDMKGHFSISIPVKSDIAPVARLLIYAVLPTGDVIGDSAKYDVENCLANKVDLSFSPSQSLPASHAHLRVTAAPQSVCALRAVDQSVLLMKPDAELSASSVYNLLPEKDLTGFPGPLNDQDDEDCINRHNVYINGITYTPVSSTNEKDMYSFLEDMGLKAFTNSKIRKPKMCPQLEHGPEGEGEGEFRGVTIPENFYGVSEDLVVQISELEGRGSVEEPHTKLRKYFPETWIWDLVVVNSAGVAEVGVTVPDTITEWKAGAFCLSEDAGLGISSTASLRAFQPFFVELTMPYSVIRGEAFTLKATVLNYLPKCIRVSVQLEASPAFLAVPVEKEQAPHCICANGRQTVSWAVTPKSLGNVNFTVSAEALESQELCGTEVPSVPEHGRKDTVIKPLLVEPEGLEKETTFNSLLCPSGGEVSEELSLKLPPNVVEESARASVSVLGDILGSAMQNTQNLLQMPYGCGEQNMVLFAPNIYVLDYLNETQQLTPEIKSKAIGYLNTGYQRQLNYKHYDGSYSTFGERYGRNQGNTWLTAFVLKTFAQARAYIFIDEAHITQALIWLSQRQKDNGCFRSSGSLLNNAIKGGVEDEVTLSAYITIALLEIPLTVTHPVVRNALFCLESAWKTAQEGDHGSHVYTKALLAYAFALAGNQDKRKEVLKSLNEEAVKKDNSVHWERPQKPKAPVGHFYEPQAPSAEVEMTSYVLLAYLTAQPAPTSEDLTSATNIVKWITKQQNAQGGFSSTQDTVVALHALSKYGAATFTRTGKAAQVTIQSSGTFSSKFQVDNNNRLLLQQVSLPELPGEYSMKVTGEGCVYLQTSLKYNILPEKEEFPFALGVQTLPQTCDEPKAHTSFQISLSVSYTGSRSASNMAIVDVKMVSGFIPLKPTVKMLERSNHVSRTEVSSNHVLIYLDKVSNQTLSLFFTVLQDVPVRDLKPAIVKVYDYYETDEFAIAEYNAPCSKDLGNADYKDDDDKGASHHHHHH
As to B1, the “Protease Inhibition (% of WT)” value is 36 % of WT in the experiment with MMP2; 115 % of WT with Elastase; 39 % of WT with MMP9; 100 % of WT with MMP1; 51 % of WT with MMP8; 140 % of WT with MMP3. For the same molecule, the “Protease Inhibition (% of WT)” value with Cathepsin G is 90 % of WT; with MMP13, 89 % of WT; with MMP7, 137 % of WT; in the experiment with ADAMTS5 it was 530 % of WT.

B2: Variant A2M, bait region SEQ ID NO 18 (other)
chain: SVSGKPQYMVLVPSLLHTETTEKGCVLLSYLNETVTVSASLESVRGNRSLFTDLEAENDVLHCVAFAVPKSSSNEEVMFLTVQVKGPTQEFKKRTTVMVKNEDSLVFVQTDKSIYKPGQTVKFRVVSMDENFHPLNELIPLVYIQDPKGNRIAQWQSFQLEGGLKQFSFPLSSEPFQGSYKVVVQKKSGGRTEHPFTVEEFVLPKFEVQVTVPKIITILEEEMNVSVCGLYTYGKPVPGHVTVSICRKYSDASDCHGEDSQAFCEKFSGQLNSHGCFYQQVKTKVFQLKRKEYEMKLHTEAQIQEEGTVVELTGRQSSEITRTITKLSFVKVDSHFRQGIPFFGQVRLVDGKGVPIPNKVIFIRGNEANYYSNATTDEHGLVQFSINTTNVMGTSLTVRVNYKDRSPCYGYQWVSEEHEEAHHTAYLVFSPSKSFVHLEPMSHELPCGHTQTVQAHYILNGGTLLGLKKLSFYYLIMAKGGIVRTGTHGLLVKQEDMKGHFSISIPVKSDIAPVARLLIYAVLPTGDVIGDSAKYDVENCLANKVDLSFSPSQSLPASHAHLRVTAAPQSVCALRAVDQSVLLMKPDAELSASSVYNLLPEKDLTGFPGPLNDQDDEDCINRHNVYINGITYTPVSSTNEKDMYSFLEDMGLKAFTNSKIRKPKMCPQLEHGPIPENFYGLEGEGEGEGEAIPMSIPRYLTAEFRGVTVEEPHTKLRKYFPETWIWDLVVVNSAGVAEVGVTVPDTITEWKAGAFCLSEDAGLGISSTASLRAFQPFFVELTMPYSVIRGEAFTLKATVLNYLPKCIRVSVQLEASPAFLAVPVEKEQAPHCICANGRQTVSWAVTPKSLGNVNFTVSAEALESQELCGTEVPSVPEHGRKDTVIKPLLVEPEGLEKETTFNSLLCPSGGEVSEELSLKLPPNVVEESARASVSVLGDILGSAMQNTQNLLQMPYGCGEQNMVLFAPNIYVLDYLNETQQLTPEIKSKAIGYLNTGYQRQLNYKHYDGSYSTFGERYGRNQGNTWLTAFVLKTFAQARAYIFIDEAHITQALIWLSQRQKDNGCFRSSGSLLNNAIKGGVEDEVTLSAYITIALLEIPLTVTHPVVRNALFCLESAWKTAQEGDHGSHVYTKALLAYAFALAGNQDKRKEVLKSLNEEAVKKDNSVHWERPQKPKAPVGHFYEPQAPSAEVEMTSYVLLAYLTAQPAPTSEDLTSATNIVKWITKQQNAQGGFSSTQDTVVALHALSKYGAATFTRTGKAAQVTIQSSGTFSSKFQVDNNNRLLLQQVSLPELPGEYSMKVTGEGCVYLQTSLKYNILPEKEEFPFALGVQTLPQTCDEPKAHTSFQISLSVSYTGSRSASNMAIVDVKMVSGFIPLKPTVKMLERSNHVSRTEVSSNHVLIYLDKVSNQTLSLFFTVLQDVPVRDLKPAIVKVYDYYETDEFAIAEYNAPCSKDLGNADYKDDDDKGASHHHHHH
As for B2, the “Protease Inhibition (% of WT)” value with MMP2 was 58 % of WT; with Elastase it was 86 % of WT; with MMP9 it was 53 % of WT; in the experiment with MMP1, 91 % of WT; in the experiment with MMP8, 82 % of WT; with MMP3 it was 38 % of WT. The “Protease Inhibition (% of WT)” value was 83 % of WT in the experiment with Cathepsin G, 117 % of WT with MMP13, 102 % of WT with MMP7 and 154 % of WT in the experiment with ADAMTS5.

The values are drawn from patent US20230250154A1 (CYTONICS, published 2023).
